Laboratory results published in patent US11440969B2, “Use of human epididymis protein 4 (HE4) for assessing responsiveness of MUC 16-positive cancer treatment” (Genentech, Inc., priority 2016, dated 2022).

Test: Safety of DMUC5754A in patients: related adverse events, DLT, MTD/RP2D (NCI CTCAE v4.0)
Format: in vivo, human
Conditions: for On study PN = No, patients n (%) / On study PN = Yes, patients n (%) / Median time to onset of first PN on study: q1w dosing
Experimental: This multicenter, open-label, dose-escalation study was designed to identify the recommended Phase II dose (RP2D) of DMUC5754A in patients with platinum-resistant OC or unresectable pancreatic cancer. In the single-agent dose escalation stage utilizing a 3+3 enrollment scheme, patients were given intravenous DMUC5754A (Genentech Inc.) 0.3-3.2 mg/kg every 3 weeks (q3w) to evaluate the safety, tolerability, and pharmacokinetics of DMUC5754A. Following determination of the maximum tolerated dose (MTD), dose-expansion cohorts were enrolled at the RP2D of 2.4 mg/kg to further characterize the safety and preliminary clinical efficacy of DMUC5754A.
Dosing on a weekly (qlw) schedule was also evaluated at the RP2D, employing a 3+3 design to determine the MTD of weekly dosing, followed by a cohort expansion to further characterize the safety and activity of q1w dosing.
Safety was evaluated according to NCI CTCAE v4.0. […] The maximum tolerated dose (MTD) was defined as the dose at which ≤1 of 6 patients at an assigned dose with protocol-defined DLT. Patients who experienced a DLT or adverse event (AE) meeting DLT criteria after the DLT assessment window were allowed to delay dosing for up to 2 weeks or undergo a dose reduction.

[1] = q1w patients, over all dose levels

B1: DMUC5754A: antibody-drug conjugate: humanized IgG1 anti-MUC16 monoclonal antibody and MMAE, linked through protease labile linker maleimidocaproyl-valine-citrulline-p-aminobenzyloxycarbonyl (conjugate, chains of the INN, looked up)
VH: EVQLVESGGGLVQPGGSLRLSCAASGYSITNDYAWNWVRQAPGKGLEWVGYISYSGYTTYNPSLKSRFTISRDTSKNTLYLQMNSLRAEDTAVYYCARWTSGLDYWGQGTLVTVSS
VL: DIQMTQSPSSLSASVGDRVTITCKASDLIHNWLAWYQQKPGKAPKLLIYGATSLETGVPSRFSGSGSGTDFTLTISSLQPEDFATYYCQQYWTTPFTFGQGTKVEIK
modifications: MMAE via mc-vc-PABC linker
protocol-defined DLTs (3.2 mg/kg q3w, OC, 1 Grade 4 hypocalcaemia and 1 Grade 3 uric acid increase, in 2 of 3 DLT-evaluable patients): 2
Alopecia (related AE), patients n (%) (q1w 0.8 mg/kg (n = 3)): 0
Anemia (related AE), patients n (%) (q1w 0.8 mg/kg (n = 3)): 1 (33.3%)
Any adverse events (related), patients n (%) (q1w 0.8 mg/kg (n = 3)): 2 (66.7%)
Arthralgia (related AE), patients n (%) (q1w 0.8 mg/kg (n = 3)): 0
Aspartate aminotransferase increased (related AE), patients n (%) (q1w 0.8 mg/kg (n = 3)): 0
Constipation (related AE), patients n (%) (q1w 0.8 mg/kg (n = 3)): 1 (33.3%)
Decreased appetite (related AE), patients n (%) (q1w 0.8 mg/kg (n = 3)): 0
Diarrhea (related AE), patients n (%) (q1w 0.8 mg/kg (n = 3)): 0
Fatigue (related AE), patients n (%) (q1w 0.8 mg/kg (n = 3)): 0
Headache (related AE), patients n (%) (q1w 0.8 mg/kg (n = 3)): 0
Hypomagnesaemia (related AE), patients n (%) (q1w 0.8 mg/kg (n = 3)): 1 (33.3%)
Hyponatremia (related AE), patients n (%) (q1w 0.8 mg/kg (n = 3)): 0
Nausea (related AE), patients n (%) (q1w 0.8 mg/kg (n = 3)): 0
Neutropenia (related AE), patients n (%) (q1w 0.8 mg/kg (n = 3)): 1 (33.3%)
Peripheral neuropathy (related AE), patients n (%) (q1w 0.8 mg/kg (n = 3)): 0
Vomiting (related AE), patients n (%) (q1w 0.8 mg/kg (n = 3)): 0
Alopecia (related AE), patients n (%) (q1w 1.1 mg/kg (n = 7)): 1 (14.3%)
Anemia (related AE), patients n (%) (q1w 1.1 mg/kg (n = 7)): 3 (42.9%)
Any adverse events (related), patients n (%) (q1w 1.1 mg/kg (n = 7)): 7 (100.0%)
Arthralgia (related AE), patients n (%) (q1w 1.1 mg/kg (n = 7)): 2 (28.6%)
Aspartate aminotransferase increased (related AE), patients n (%) (q1w 1.1 mg/kg (n = 7)): 2 (28.6%)
Constipation (related AE), patients n (%) (q1w 1.1 mg/kg (n = 7)): 0
Decreased appetite (related AE), patients n (%) (q1w 1.1 mg/kg (n = 7)): 1 (14.3%)
Diarrhea (related AE), patients n (%) (q1w 1.1 mg/kg (n = 7)): 3 (42.9%)
Fatigue (related AE), patients n (%) (q1w 1.1 mg/kg (n = 7)): 2 (28.6%)
Headache (related AE), patients n (%) (q1w 1.1 mg/kg (n = 7)): 2 (28.6%)
Hypomagnesaemia (related AE), patients n (%) (q1w 1.1 mg/kg (n = 7)): 2 (28.6%)
Hyponatremia (related AE), patients n (%) (q1w 1.1 mg/kg (n = 7)): 1 (14.3%)
Nausea (related AE), patients n (%) (q1w 1.1 mg/kg (n = 7)): 4 (57.1%)
Neutropenia (related AE), patients n (%) (q1w 1.1 mg/kg (n = 7)): 1 (14.3%)
Peripheral neuropathy (related AE), patients n (%) (q1w 1.1 mg/kg (n = 7)): 1 (14.3%)
Vomiting (related AE), patients n (%) (q1w 1.1 mg/kg (n = 7)): 2 (28.6%)
Alopecia (related AE), patients n (%) (q1w 1.4 mg/kg (n = 7)): 2 (28.6%)
Anemia (related AE), patients n (%) (q1w 1.4 mg/kg (n = 7)): 2 (28.6%)
Any adverse events (related), patients n (%) (q1w 1.4 mg/kg (n = 7)): 5 (71.4%)
Arthralgia (related AE), patients n (%) (q1w 1.4 mg/kg (n = 7)): 1 (14.3%)
Aspartate aminotransferase increased (related AE), patients n (%) (q1w 1.4 mg/kg (n = 7)): 1 (14.3%)
Constipation (related AE), patients n (%) (q1w 1.4 mg/kg (n = 7)): 2 (28.6%)
Decreased appetite (related AE), patients n (%) (q1w 1.4 mg/kg (n = 7)): 3 (42.9%)
Diarrhea (related AE), patients n (%) (q1w 1.4 mg/kg (n = 7)): 0
Fatigue (related AE), patients n (%) (q1w 1.4 mg/kg (n = 7)): 2 (28.6%)
Headache (related AE), patients n (%) (q1w 1.4 mg/kg (n = 7)): 0
Hypomagnesaemia (related AE), patients n (%) (q1w 1.4 mg/kg (n = 7)): 0
Hyponatremia (related AE), patients n (%) (q1w 1.4 mg/kg (n = 7)): 1 (14.3%)
Nausea (related AE), patients n (%) (q1w 1.4 mg/kg (n = 7)): 4 (57.1%)
Neutropenia (related AE), patients n (%) (q1w 1.4 mg/kg (n = 7)): 1 (14.3%)
Peripheral neuropathy (related AE), patients n (%) (q1w 1.4 mg/kg (n = 7)): 2 (28.6%)
Vomiting (related AE), patients n (%) (q1w 1.4 mg/kg (n = 7)): 5 (71.4%)
Alopecia (related AE), patients n (%) (q1w 1.6 mg/kg (n = 6)): 2 (33.3%)
Anemia (related AE), patients n (%) (q1w 1.6 mg/kg (n = 6)): 2 (33.3%)
Any adverse events (related), patients n (%) (q1w 1.6 mg/kg (n = 6)): 6 (100.0%)
Arthralgia (related AE), patients n (%) (q1w 1.6 mg/kg (n = 6)): 0
Aspartate aminotransferase increased (related AE), patients n (%) (q1w 1.6 mg/kg (n = 6)): 1 (16.7%)
Constipation (related AE), patients n (%) (q1w 1.6 mg/kg (n = 6)): 0
Decreased appetite (related AE), patients n (%) (q1w 1.6 mg/kg (n = 6)): 1 (16.7%)
Diarrhea (related AE), patients n (%) (q1w 1.6 mg/kg (n = 6)): 2 (33.3%)
Fatigue (related AE), patients n (%) (q1w 1.6 mg/kg (n = 6)): 3 (50.0%)
Headache (related AE), patients n (%) (q1w 1.6 mg/kg (n = 6)): 1 (16.7%)
Hypomagnesaemia (related AE), patients n (%) (q1w 1.6 mg/kg (n = 6)): 2 (33.3%)
Hyponatremia (related AE), patients n (%) (q1w 1.6 mg/kg (n = 6)): 1 (16.7%)
Nausea (related AE), patients n (%) (q1w 1.6 mg/kg (n = 6)): 3 (50.0%)
Neutropenia (related AE), patients n (%) (q1w 1.6 mg/kg (n = 6)): 3 (50.0%)
Peripheral neuropathy (related AE), patients n (%) (q1w 1.6 mg/kg (n = 6)): 1 (16.7%)
Vomiting (related AE), patients n (%) (q1w 1.6 mg/kg (n = 6)): 2 (33.3%)
Alopecia (related AE), patients n (%) (q1w All Patients (n = 23)): 5 (21.7%)
Anemia (related AE), patients n (%) (q1w All Patients (n = 23)): 8 (34.8%)
Any adverse events (related), patients n (%) (q1w All Patients (n = 23)): 20 (87.0%)
Arthralgia (related AE), patients n (%) (q1w All Patients (n = 23)): 3 (13.0%)
Aspartate aminotransferase increased (related AE), patients n (%) (q1w All Patients (n = 23)): 4 (17.4%)
Constipation (related AE), patients n (%) (q1w All Patients (n = 23)): 3 (13.0%)
Decreased appetite (related AE), patients n (%) (q1w All Patients (n = 23)): 5 (21.7%)
Diarrhea (related AE), patients n (%) (q1w All Patients (n = 23)): 5 (21.7%)
Fatigue (related AE), patients n (%) (q1w All Patients (n = 23)): 7 (30.4%)
Headache (related AE), patients n (%) (q1w All Patients (n = 23)): 3 (13.0%)
Hypomagnesaemia (related AE), patients n (%) (q1w All Patients (n = 23)): 5 (21.7%)
Hyponatremia (related AE), patients n (%) (q1w All Patients (n = 23)): 3 (13.0%)
Nausea (related AE), patients n (%) (q1w All Patients (n = 23)): 11 (47.8%)
Neutropenia (related AE), patients n (%) (q1w All Patients (n = 23)): 6 (26.1%)
Vomiting (related AE), patients n (%) (q1w All Patients (n = 23)): 9 (39.1%)
patients with AEs leading to treatment discontinuation (q1w cohorts, 3/23 patients): 13.0%
On study PN = No, patients n (%) (Prior neuropathy = No): 10 (43%)
On study PN = Yes, patients n (%) (Prior neuropathy = No): 2 (9%)
Median time to onset of first PN on study (Prior neuropathy = Yes): 190 days
On study PN = No, patients n (%) (Prior neuropathy = Yes): 9 (39%)
On study PN = Yes, patients n (%) (Prior neuropathy = Yes): 2 (9%)
Median time to onset of first PN on study (Total): 190 days
On study PN = No, patients n (%) (Total): 19 (83%)
On study PN = Yes, patients n (%) (Total): 4 (17%)
Drug-related SAE dehydration, patients (q1w patients): 1
Drug-related SAE diarrhea, patients (q1w patients): 1
Drug-related SAE nausea, patients (q1w patients): 1
Drug-related SAE posterior reversible encephalopathy syndrome, patients (q1w patients): 1
alopecia, related AE [1]: 21.7%
anemia, related AE [1]: 34.8%
decreased appetite, related AE [1]: 21.7%
diarrhea, related AE [1]: 21.7%
fatigue, related AE [1]: 30.4%
hypomagnesaemia, related AE [1]: 21.7%
nausea, related AE [1]: 47.8%
neutropenia, related AE [1]: 26.1%
vomiting, related AE [1]: 39.1%
Grade ≥3 related diarrhea (q1w patients, total): 8.7%
Grade ≥3 related hyponatraemia (q1w patients, total): 8.7%
Grade ≥3 related neutropenia (q1w patients, total): 17.4%
RP2D (q1w schedule): 1.4 mg/kg
Grade ≥3 related diarrhea, patients (q1w, at 1.4 mg/kg): 0
Grade ≥3 related hyponatraemia, patients (q1w, at 1.4 mg/kg): 0
Grade ≥3 related neutropenia, patients (q1w, at 1.4 mg/kg): 1
MTD dose (q3w): 2.4 mg/kg
Alopecia (related AE), patients (q3w 0.3 mg/kg (n = 3)): 0
Any adverse events (related), patients (q3w 0.3 mg/kg (n = 3)): 3
Arthralgia (related AE), patients (q3w 0.3 mg/kg (n = 3)): 0
Asthenia (related AE), patients (q3w 0.3 mg/kg (n = 3)): 0
Decreased appetite (related AE), patients (q3w 0.3 mg/kg (n = 3)): 1
Diarrhea (related AE), patients (q3w 0.3 mg/kg (n = 3)): 0
Dysgeusia (related AE), patients (q3w 0.3 mg/kg (n = 3)): 0
Fatigue (related AE), patients (q3w 0.3 mg/kg (n = 3)): 0
Hypokalemia (related AE), patients (q3w 0.3 mg/kg (n = 3)): 0
Hypomagnesaemia (related AE), patients (q3w 0.3 mg/kg (n = 3)): 1
Hypophosphatemia (related AE), patients (q3w 0.3 mg/kg (n = 3)): 0
Nausea (related AE), patients (q3w 0.3 mg/kg (n = 3)): 1
Neutropenia (related AE), patients (q3w 0.3 mg/kg (n = 3)): 0
Peripheral neuropathy (related AE), patients (q3w 0.3 mg/kg (n = 3)): 1
